{
  "source": "patent US20090217400",
  "proteins": {"B1": {"name": "Cre mutant CM2 [C2(+/-)#4] (protein)", "chain": "MSNLLTVHQNLPALPVDATSDEVRKNLMDMFRDRQAFSEHTWKMLLSVCRSWAAWCKLNNRKWFPAEPEDVRDYLLYLQARGLAVKTIQQHLGQLNMLHRRSGLPRPSDSNAVSLVMRRIRKENVDAGERAKQALAFERTDFDQVRSLMENSDRCQDIRNLAFLGIAYNTLLRAAEIARIRVKDISRTDGGRMLIHIGRTKTLVSTAGVEKALSLGVTKLVERWISVSGVADDPNNYLFCRVRKNGVAAPSATSQLSLSALHGIFGATHRLIYGAKDDSGQRYLAWSGHSARVGAARDMARAGVSIPEIMQAGGWTNVNIVMNYIRNLDSETGAMVRLLEDGD"}},
  "biological_target": "T1, wild type Cre recombinase, P06956",
  "T1 chain": "B1 chain with A174I, L258T, S259R, H262E, G266E",
  "note": "Numbering of substitutions follows the chain as printed.",
  "data": [
    {"protein": "B1", "values": [
      {"measurement": "catalytic efficiency of recombination of the asymmetric loxP-M7 substrate (wt Cre-CM2 mixture compared with CM1)", "value": "both the wt Cre-CM2 mixture and CM1 demonstrated comparable catalytic efficiency"},
      {"measurement": "recombination extent after 30 min (loxP-M7 substrate, wt Cre-CM2 mixture, 30 nM enzyme)", "value": "approximately 20% after 30 min"},
      {"measurement": "recombination extent after 90 min (loxP-M7 substrate, wt Cre-CM2 mixture, 30 nM enzyme)", "value": "25-30% after 90 min"},
      {"measurement": "recombination rate (observed rate constant, loxP-M7 substrate, wt Cre-CM2 mixture, 30 nM enzyme)", "value": "0.034 and 0.048 min-1, respectively"},
      {"measurement": "substrate recombination in 1 h (in vitro recombination of loxP-M7 DNA substrate, equal wt Cre-CM2 mixture at 30 nM and 60 nM total enzyme)", "value": "approximately 35% substrate recombination in 1 h"}
    ]}
  ]
}
